Key:
[1] = target: GpYLPQTV (IL-6R/gp130-derived pTyr peptide); assay: SPR (SensiQ), His-tagged protein immobilised on HisCap chip, pTyr peptide as analyte
[2] = target: 5-carboxyfluorescein-GpYLPQTV-NH2; assay: Fluorescence polarization saturation curve; 10 nM 5-carboxyfluorescein-GpYLPQTV-NH2 probe with increasing purified His-Stat3
[3] = target: GpYIKTE (Stat1 pY701 peptide); assay: SPR (SensiQ), His-tagged protein immobilised on HisCap chip, pTyr peptide as analyte
[4] = target: GpYVKPQ (pTyr peptide of Stat5); assay: as above
[5] = target: PEpYINQS (pY1068 peptide of EGFR); assay: as above
[6] = target: PVpYHNQP (pY1086 peptide of EGFR); assay: as above
[7] = target: PpYLKTK (Stat3-derived pTyr705 peptide); assay: as above
[8] = target: GpYVKPQ (pTyr peptide of Stat5); assay: SPR (SensiQ); His-tagged Stat3 SH2 domain immobilised on a HisCap sensor chip, GpYVKPQ passed over as analyte; sensorgram shown at 100 µM

**Q.** What does the source list for His-tagged Stat3 (full-length Stat3)?
**A.** Kd [1]: 0.02 µM; EC50 (read off the curve) [2]: 0.1 µM

**Q.** How did the Kd [3] turn out when His-tagged Stat3 SH2 domain was run?
**A.** 6.6 µM

**Q.** What about the Kd [1] of the same substance?
**A.** 0.03 µM

**Q.** And the Kd [4]?
**A.** 5200 µM

**Q.** What about the Kd [5] of the same substance?
**A.** 0.4 µM

**Q.** And the Kd [6]?
**A.** 2.6 µM

**Q.** And the Kd [7]?
**A.** 1.6 µM

**Q.** What about the Kd [8] of the same substance?
**A.** 5140 µM

From patent US20130177979A1, “METHODS AND COMPOSITIONS FOR CELL PERMEABLE STAT3 INHIBITOR” (University of Central Florida Research Foundation, Inc., priority 2010, published 2013)
